Laboratory results from article PMC3602595 (2013).

Molecular target: T1, HasR TonB box dodecamer peptide (Serratia marcescens)
T1 chain: ALDSLTVLGAGG
Assay: ITC

B1: TonBCTD CTD (protein)
chain: not shown
Question: B1 was tested. Which Kd did it give?
Answer: ~50 µM
